Data as given in IntAct's records for PubMed 16979624.

Experiments:
enah_human ENAH = enah_human ENAH (UniProt Q8N8S7)
home3_human HOMER3 = home3_human HOMER3 (UniProt Q9NSC5)
Sequence of UniProt Q9NSC5 (Q9NSC5 whole entry): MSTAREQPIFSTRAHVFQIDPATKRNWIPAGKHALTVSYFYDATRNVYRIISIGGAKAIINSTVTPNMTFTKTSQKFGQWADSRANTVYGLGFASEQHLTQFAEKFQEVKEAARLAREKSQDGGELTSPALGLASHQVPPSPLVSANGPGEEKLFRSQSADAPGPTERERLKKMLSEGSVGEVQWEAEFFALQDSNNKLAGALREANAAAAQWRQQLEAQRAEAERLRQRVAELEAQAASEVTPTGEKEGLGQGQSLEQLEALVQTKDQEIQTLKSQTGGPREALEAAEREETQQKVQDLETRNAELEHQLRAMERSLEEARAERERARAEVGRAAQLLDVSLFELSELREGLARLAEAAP

Sequence of UniProt Q8N8S7 (Q8N8S7 whole entry): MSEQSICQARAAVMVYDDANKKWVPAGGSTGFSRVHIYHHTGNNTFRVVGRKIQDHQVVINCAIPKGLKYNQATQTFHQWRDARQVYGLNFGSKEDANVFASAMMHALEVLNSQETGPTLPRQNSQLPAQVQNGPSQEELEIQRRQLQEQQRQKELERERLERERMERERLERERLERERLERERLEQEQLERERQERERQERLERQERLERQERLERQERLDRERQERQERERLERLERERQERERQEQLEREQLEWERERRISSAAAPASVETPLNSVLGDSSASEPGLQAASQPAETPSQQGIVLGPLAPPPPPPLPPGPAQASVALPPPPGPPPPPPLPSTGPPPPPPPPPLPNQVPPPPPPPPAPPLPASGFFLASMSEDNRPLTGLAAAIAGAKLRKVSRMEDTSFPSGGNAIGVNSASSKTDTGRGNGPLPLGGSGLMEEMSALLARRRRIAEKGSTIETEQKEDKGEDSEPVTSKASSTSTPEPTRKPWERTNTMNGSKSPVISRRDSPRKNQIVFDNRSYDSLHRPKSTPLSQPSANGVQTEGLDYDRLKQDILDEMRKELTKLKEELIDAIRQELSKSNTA

effect of a mutation on the interaction (enah_human ENAH): disrupting interaction
effect of a mutation on the interaction (home3_human HOMER3): disrupting interaction
Substance: Protocadherin Fat 1 (Homo sapiens), Q14517 P4438D
